Source: article PMC8979966

B1: TCR 868 CDR3-alpha fragment GAHDYALN, as printed (the 868 form used here; an outside source, not checked, gives natural 868 a different CDR3-alpha) (parent)
chain: GAHDYALN

Variants of: B1
Test: YAMTAD yeast mating, deep sequencing; 2 biological x 4 technical repeats
Settings: with SL9 ([…]) on HLA-A*02:01, single chain; S. cerevisiae mating; SL9 group vs negative-control group; higher = more enriched with SL9 than with the negative controls; the paper calls a variant enriched at SL9/NC > 1 and P < 0.05; unresolved parent; not an affinity; keep out of graded; scale: ratio 'SL9/NC': mean frequency in the SL9-HLA-A*02:01 group / mean frequency in the sheet's 'NC' group, each normalised …; numbering: sequential-on-construct, sequence starts at 1
Work on GACDYALN yielded a screen value of 1.13. Work on LAHDYALN yielded a screen value of 1.21. With GLHDYALN the screen value was 1.06.
